Assay results taken from patent US20110165161A1, “ANTI-EPCAM ANTIBODIES THAT INDUCE APOPTOSIS OF CANCER CELLS AND METHODS USING SAME” (priority 2009, published 2011).
Residue numbers refer to the chain shown, from its start.

B1: 6D11: murine anti-human EpCAM monoclonal antibody (IgG1, K), hybridoma m338-6D11.8; VH SEQ ID NO:23, VL SEQ ID NO:25 (antibody, listed as Mus musculus, V domains shown)
VH: EVQLVESGGDLVKPGGSLKLSCAASGFAFDSYGMSWIRQTPGTRLEWVATISSGGYYTYYEDNVKGRFIISRDNAKNTLDLQMSGLKSEDAATYYCARRGNYDVDYYAMDYWGQGTSVIVSS
VL: DVVLTQIPLSLPVSLGDQASISCRSSQSLEHSNGNTYLHWYLQKPGQSPKLLIYKVSNRFSGVPDRFSGSGSGTDFTLKISRVEAEDLGVYFCSQSTHVPPWTFGGGTKLEFKR
B2: 4D2: murine anti-human EpCAM monoclonal antibody (IgG1, K), hybridoma m338-4D2.20; VH SEQ ID NO:19, VL SEQ ID NO:21 (antibody, listed as Mus musculus, V domains shown)
VH: B1 VH with I37V, T43K, E61Q, N63S, I69T, I70T, G85S, A91S, T93I, I119T
VL: B1 VL with L4M, I7T, E30V, K79R, F112I
B3: 2D11: murine anti-human EpCAM monoclonal antibody (IgG1, K), hybridoma m322-2D11.19; VH SEQ ID NO:15, VL SEQ ID NO:17 (antibody, listed as Mus musculus, V domains shown)
VH: QIQLVQSGPELKKPGETVKISCKASGYTFTNYGMNWVKQAPGKGLKWMGWINTNTGEATYVEEFKGRVVFSLETSASTAYLQINNLKNEDTATYFCARIGYVWYFDVWGAGTTVTVSS
VL: DIVMSQSPSSLAVSAGEKVTMSCKSSQSLFSSRTRKNYLAWYQQKPGQSPKLLIYWASTRESGVPDRFTGSGSGTDFTLTINSVQAEDLAVYYCKHSNNLFTFGSGTKLEIKR

tested on: Ovarian cancer NIH:OVCAR-3 cells; assay: Antibody cytotoxicity assay (Annexin V + PI), NIH:OVCAR-3; assay type: cell-based; details: 1, 3 and 10 μg/ml, overnight
Description: (§1) After a 17-20 hr incubation at 37° C., cells were stained with 0.3 μl of FITC-conjugated Annexin V (Strong Biotech Corp. Cat. No. AVK250) in 50 μl Annexin V binding buffer (Strong Biotech Corp. Cat. No. AVK250) at RT for 20 min. After wash, the cells were then stained with 0.3 μl of propidium iodide in 200 μl Annexin V binding buffer. Annexin V and Propidium Iodide were used as a joint indicator for cell death. The data were acquired with BD FACSCalibur based on an acquisition of 3,000-5,000 cells and analyzed with the Cell Quest software. The combined percentages of the Annexin V+/PI+, Annexin V+/PI− and Annexin V−/PI+populations were considered as dead cells.

Molecule | Induction of cell death (in words)
B1 | substantial cell death
B2 | substantial cell death
B3 | substantial cell death

tested on: Gastric cancer NCI-N87 cells; assay: Antibody cytotoxicity assay (Annexin V + PI), NCI-N87; assay type: cell-based; details: 1, 3 and 10 μg/ml, overnight
Description: as §1

Molecule | Induction of cell death (in words)
B1 | substantial cell death
B2 | substantial cell death
B3 | substantial cell death

tested on: Lung cancer NCI-H520 cells; assay: Antibody cytotoxicity assay (Annexin V + PI), NCI-H520; assay type: cell-based; details: 1, 3 and 10 μg/ml, overnight
Description: as §1

Molecule | Induction of cell death (in words)
B1 | substantial cell death
B2 | substantial cell death
B3 | substantial cell death

tested on: Colorectal cancer DLD-1 cells; assay: Antibody cytotoxicity assay (Annexin V + PI), DLD-1; assay type: cell-based; details: 1, 3 and 10 μg/ml, overnight
Description: as §1

Molecule | Induction of cell death (in words)
B1 | substantial cell death
B2 | substantial cell death
B3 | substantial cell death

tested on: Pharynx cancer FaDu cells; assay: Antibody cytotoxicity assay (Annexin V + PI), FaDu; assay type: cell-based; details: 1, 3 and 10 μg/ml, overnight
Description: as §1

Molecule | Induction of cell death (in words)
B1 | substantial cell death
B2 | substantial cell death
B3 | substantial cell death

tested on: CHO parental cells; assay: FACS binding of anti-EpCAM antibodies to CHO parental cells; set-up: species or system Chinese hamster; details: antibody 0.1 μg/ml; HPS at 300x dilution
Description: 1×10^5 CHO/EpCAM or CHO parental cells were seeded in each well of a v-bottomed 96-well plate and incubated with purified anti-EpCAM antibodies or mouse IgG control antibody 9E10 at concentration of 0.1 μg/ml. A 300× dilution of human cell hyper-immune serum (HPS 300×) was used as binding positive control for both cell lines here. After 1 hr incubation at 4° C., cells were washed twice with 200 μl FACS buffer (1×PBS containing 1% FBS), stained with 100 μl of 1 μg/ml goat-anti-mouse IgG-PE (Southern Biotech, Cat. No. 1032-09) in FACS buffer and then incubated at 4° C. for 30 min. Cells were washed thrice with FACS buffer and analyzed by flow cytometry (BD LSR, BD Life Sciences).

Molecule | Binding (FACS, Mean fluorescence intensity (MFI)) CHO
B1 | 5
B2 | 5
B3 | 6

tested on: Prostate cancer LNCaP cells; assay: Antibody cytotoxicity assay (Annexin V + PI), LNCaP; assay type: cell-based; details: 1, 3 and 10 μg/ml, overnight
Description: as §1

Molecule | Induction of cell death (in words)
B1 | substantial cell death
B2 | substantial cell death
B3 | substantial cell death

tested on: Breast cancer T-47D cells; assay: Antibody cytotoxicity assay (Annexin V + PI), T-47D; assay type: cell-based; details: 1, 3 and 10 μg/ml, overnight
Description: as §1

Molecule | Induction of cell death (in words)
B1 | substantial cell death
B2 | substantial cell death
B3 | substantial cell death

tested on: NCI-H358 lung cancer cells; assay: Cell death in NCI-H358 lung cancer cells (Annexin V + PI); assay type: cell-based, human; details: mean of 5 experiments; mAb 10 μg/ml; 17 hr
Description: 5×10^4 NCI-H358 cells were seeded to each well of a 96-well plate, and then 10 μg/ml of anti-EpCAM or control (9E10) mAbs diluted in the medium was added into the cells. After a 17-hr incubation at 37° C., the cells were stained with 0.3 μl of FITC-conjugated Annexin V (Strong Biotech Corp. Cat. No. AVK250) in 50 μl Annexin V binding buffer (Strong Biotech Corp. Cat. No. AVK250) at RT for 20 min. After wash, the cells were then stained with 0.3 μl of propidium iodide in 200 μl Annexin V binding buffer. Annexin V and Propidium Iodide were used as a joint indicator for measuring cell death. The data were acquired with BD FACSCalibur based on an acquisition of 3,000-5,000 cells and analyzed with the Cell Quest software. The combined percentages of the Annexin V+/PI+, Annexin V+/PI− and Annexin V−/PI+populations were considered as dead cells.

Molecule | % of Annexin V + PI staining (untreated background subtracted), Mean ± SEM
B1 | 42.4 ± 1.0%
B2 | 43.6 ± 0.9%
B3 | 39.4 ± 3.0%
